Experimental data as given in IntAct's records for PubMed 15883825.

B1: F-box protein MET30 (Saccharomyces cerevisiae), P39014 (parent)
chain: MRRERQRMMSFEDKDKDDLDNSNSNNSSEMTDTAMMPPLKRLLITGSSDDLAQGSSGKKKMTMATRSPSSSPDLATNDSGTRVQPLPEYNFTKFCYRHNPDIQFSPTHTACYKQDLKRTQEINANIAKLPLQEQSDIHHIISKYSNSNDKIRKLILDGILSTSCFPQLSYISSLVTHMIKIDFISILPQELSLKILSYLDCQSLCNATRVCRKWQKLADDDRVWYHMCEQHIDRKCPNCGWGLPLLHMKRARIQQNSTGSSSNADIQTQTTRPWKVIYRERFKVESNWRKGHCRIQEFKGHMDGVLTLQFNYRLLFTGSYDSTIGIWDLFTGKLIRRLSGHSDGVKTLYFDDRKLITGSLDKTIRVWNYITGECISTYRGHSDSVLSVDSYQKVIVSGSADKTVKVWHVESRTCYTLRGHTEWVNCVKLHPKSFSCFSCSDDTTIRMWDIRTNSCLKVFRGHVGQVQKIIPLTIKDVENLATDNTSDGSSPQDDPTMTDGADESDTPSNEQETVLDENIPYPTHLLSCGLDNTIKLWDVKTGKCIRTQFGHVEGVWDIAADNFRIISGSHDGSIKVWDLQSGKCMHTFNGRRLQRETQHTQTQSLGDKVAPIACVCIGDSECFSGDEFGCVKMYKFDLND
partner: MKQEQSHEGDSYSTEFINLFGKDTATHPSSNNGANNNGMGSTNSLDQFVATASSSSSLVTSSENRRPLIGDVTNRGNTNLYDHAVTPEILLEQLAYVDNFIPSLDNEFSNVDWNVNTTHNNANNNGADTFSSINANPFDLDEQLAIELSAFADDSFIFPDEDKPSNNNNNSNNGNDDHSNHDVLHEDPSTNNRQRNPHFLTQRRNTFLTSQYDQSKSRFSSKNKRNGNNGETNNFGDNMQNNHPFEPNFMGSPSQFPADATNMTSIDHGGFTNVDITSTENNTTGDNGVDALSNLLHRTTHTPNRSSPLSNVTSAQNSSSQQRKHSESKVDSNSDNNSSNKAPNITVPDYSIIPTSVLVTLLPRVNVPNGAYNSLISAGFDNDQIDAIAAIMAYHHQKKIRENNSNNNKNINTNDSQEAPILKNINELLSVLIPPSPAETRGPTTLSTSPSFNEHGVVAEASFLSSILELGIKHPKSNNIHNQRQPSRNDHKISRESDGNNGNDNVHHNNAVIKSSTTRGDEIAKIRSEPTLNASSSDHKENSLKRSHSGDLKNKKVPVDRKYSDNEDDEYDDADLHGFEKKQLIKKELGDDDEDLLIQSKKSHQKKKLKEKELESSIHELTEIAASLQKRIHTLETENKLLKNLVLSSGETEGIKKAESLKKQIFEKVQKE

Variants of: B1
Settings: with met4_yeast MET4, P32389

Row | Variant | effect of a mutation on the interaction
1 | L386D;N425A;Q467A;L530D | decreasing interaction
